The text below walks through data of the DeepSol protein solubility set.

The series is described as follows: soluble on expression in E. coli; label from the status in PepcDB or PDB records.
For “MGVLTTFISQKALVGGYDNTIEPGVVILSGATITCNVSIGQGTFINKSTVISHDVRIGRYCEVSPGAKVLGRAIIGDRTEIGANAVILPDVIVGADCKIGAGAVVTRNIDSHTTVAGVPARSITKSSNNAFKLKSKIRNLLYHIRIADFRKLREYNHYVFGLEHHHHHH”, the “soluble on expression in E. coli” value is listed as “not soluble”.

For the sequence “MGSDKIHHHHHHMRFMFLHPRLSLEGDPLGLMQLSASLKQRGHIVGLTLLTEDYIEAIRSFQPDMLGVSLMSSDAVMMHQVLNKVRMVFPDLFIIVGGPHPTFDPSCLMVLPVNAICVGEGDEALVEALEQYGREGHVEGIRNVGTVTTPVTLRPLVSDLDDLPFIDRDIVYAKNHIVRDFPLKTFAASRGCHFKCTYCFNHAYNAMYAGLGHVVRRRSVDHLIAEMRDVIARYPTSYIKISDDSFTYRVDSWLEEFAEKYPRLIGLPFYCLLRADVVTRDMVRLLREAGCRSVCMSIEAGAETVRRDVLNRRVSNEKIIESFDLFNEAGIAIYTNSMLAMPRATLADDIATLDLNIRCRPTLGHFTIMAPFPGTRIHDMCEKDGILPERCGGDGDIPTSTGELSKLTTYTDEEKNIQKNIVLLGPLVIRFPVLRGVFLRCLAKLPSNNILFKCIYTVTKNLLFKRIVPVRMSPLLMLRIAIAQVKAARTQVG”, the “soluble on expression in E. coli” value was “not soluble”. To “MSLEMLGIDVVIPDISYLIERADRVKAIFLTHGHDENIGGVFYLLNKLSVPVYGTKLTLALLREKLKQYGHNRKTDLREIHSKSVITFQSTKVSFFRTIHSIPDSVGVSFKTSLGSIVSAGDFKFDQTPALNQTCDIGEIAKIGNSGVLALLSDSANVERPGYTPSEAAVSGEISDALYNSQNRVIIAVFASNINRIQQVIHAAAQNGRKIAVAGKNLQSVLQLARKLGYIEADDELFISVQDVKKYPKREVAIITAGSQGEPLAALTRMANKAHKQLNIEEGDTVVIASTPIPGQELIYSKTVDLLARAGAQVIFAQKRVHVSGHGSQEELKLMINLLKPKYLIPVNGEYRMQKAHSKIAEETGMKRSDIFLIEKGDVVEFRGQNVKIGDKVPYGNILIDGLGVGDIGNIVLRDRRLLSQDGILEGHHHHHH” belongs “not soluble”. To “MDGYQLTFSNNKRSDKSIVSEKLQRDCDPPITQKYFWSSGGHTFHFRAAAAEKNVTPFSTKMQGKYIKKKAM” belongs “not soluble”. To “MGSDKIHHHHHHMQPSNSWVCLSALEKQVVAATASLDNRGLAYADGFFTTMGVINGQILWAEYHHQRLISHAKALQLDLDSWSLLSTLQVHAQQHRQGMLKLIITRAAQDIRGYGYTPSECGSACESWLKSLAMTVSTAEQLSLNDECSIPVQPVSTAVCLSSQIACLPPSIAGLKTLNRLDNVLASAELQGIKTRVLASNGEGDISEGLLRDMTGRWVEGTMSNVFYQLSDSRLVDSPSSEMINIPNNKSNTNYLTQGQWYTPSMAQSGVAGVMRQVIIDELSTTKYPVVVRSLQDKDLPQLQQLFFCNALRGIMPMASLTLLSGEMVGF” belongs “not soluble”; to “MKIGIVTGIPGVGKSTVLAKVKEILDNQGINNKIINYGDFMLATALKLGYAKDRDEMRKLSVEKQKKLQIDAAKGIAEEARAGGEGYLFIDTHAVIRTPSGYLPGLPSYVITEINPSVIFLLEADPKIILSRQKRDTTRNRNDYSDESVILETINFARYAATASAVLAGSTVKVIVNVEGDPSIAANEIIRSMK”, “soluble”; to “MQIGANSLLQEMQSLKGEVTPSFGISPNNIVQQVNNTSGADFGQLLSQAIGNVSGLQSTSSNLATRLDMGDTTVSLSDSVIAREKASVAFEATIQVRNKLVEAYKEIMSMPV”, “not soluble”. Take “MSIVLSADHKDALQEFMNISMGRAASKLATLLNLHVTISVPNIRVATEEDMRALQSYAADYYYTRQSFYGGMDGELITLMSRCGCEQVVNDLNHSKGMADGLVSIEESILDISNILSGASLKGLCQQIELKTKIQPPVIFDPTHQPLPILQWRLSLIMEINFLVEKASFSAKTIICFADKELDKVFAHLDELLM”: the “soluble on expression in E. coli” value is given as “not soluble”. The result for “MSLQVQKSFKEQTAYGKLYLVPTPIGNLQDMTFRSIAILKKVDYIAAEDTRNTGLLLKHFDISTRQLSFHEHNAFEKIPDLLKLLKSGNSLAQVSDAGLPSISDPGYDLVRAAIQEDIAVIALPGASAGITALIASGLAPQPHIFYGFLPRKSGQQKSFFEEKKYYPETQIFYESPYRVQETLENILSVYGDRQIVLTRELTKLYEEYQRGNISEILTYIAENPLKGECLLLVSGYDHQEKEQQVSEVELKHLVEALVKEGMKPNQAIKKVAKENDFNRQELYQLYHELQEGHHHHHH” reads “soluble”; that for “LVERDSFVNALRESERRYRNIIETASEGILIIDSEVRISYANKKMTDMLGCPLEEVTGRKMCDFVSEESKDIVKLNQKRRRQGINDSYELKLVCKDGSSLWALVNAKSLFDKDGKFMGSISLLTDIT”, “not soluble”. To “MANYYEVLGVQASASPEDIKKAYRKLALRWHPDKNPDNKEEAEKKFKLVSEAYEVLSDSKKRSLYDRAGCDSWRAGGGA” belongs “soluble”; to “MPTFLLVNDDGYFSPGINALREALKSLGRVVVVAPDRNLSGVGHSLTFTEPLKMRKIDTDFYTVIDGTPADCVHLGYRVILEEKKPDLVLSGINEGPNLGEDITYSGTVSGAMEGRILGIPSIAFSAFGRENIMFEEIAKVCVDIVKKVLNEGIPEDTYLNVNIPNLRYEEIKGIKVTRQGKRAYKERVFKYIDPYGKPFYWIAAEEFGWHAEEGTDYWAVLNGYVSVTPLHLDLTNYKVMKSIKYLEDSP”, “soluble”.

Consider “MAGDPMAEAGNKTQNQSATEVNASPLQPAEYFIYHNLMNDKGLIKTDFSDQPSYLSESLGLWMEFLLSKNDAPHFQDQYQHLTDSFLMSNHLVTWKIQNGQASGTNALIDDMRIMLSLDQAAAKWGRSDYAQTARDIGTSLKTYNMNNGFFTDFYDSQAASKDVTLSYVMPDALAVLKKNGIIDEETEQRNANVLYSAPLKNGFLPKTYSSETKEYTYDSEINLIDQLYAAWHLPEGDEKASVLADWIKQEFQKNGKLYGRYSAYTKEPAVQYESPSVYALAVLFLTKQHENSSVIKAIYDRMNDFEIHDPVKSYYGGYMSGTQTHSFDNLLPLLAERKLFNENIIQLEHHHHHH”, for which the “soluble on expression in E. coli” value is on record as “soluble”. The result for “GSHMGRSQKVSQMTKVETRLEILDVTLRDGEQTRGVSFSTSEKLNIAKFLLQKLNVDRVEIASARVSKGELETVQKIMEWAATEQLTERIEILGFVDGNKTVDWIKDSGAKVLNLLTKGSLHHLEKQLGKTPKEFFTDVSFVIEYAIKSGLKINVYLEDWSNGFRNSPDYVKSLVEHLSKEHIERIFLPDTLGVLSPEETFQGVDSLIQKYPDIHFEFHGHNDYDLSVANSLQAIRAGVKGLHASINGLGERAGNTPLEALVTTIHDKSNSKTNINEIAITEASRLVEVFSGKRISANRPIVGEDVFTQTAGVHADGDKKGNLYANPILPERFGRKR” reads “soluble”.

As for “MTQPPASTSGIMGTLSSWNLKILQINQLHLVHWNAVKFENFEDAALEENGLAVIGVFLKISETSGSPVSTGRPKPLARKLRPAQKHWVLQSRPFLSSQVQENCKVTYFHRKHWVRIRPLRTTPPSWDYTRICIQREMVPARIRVLREMVPEAWRCFPNRLPLLSNIRPDFSKAPLAYVKRWLWTARHPHSLSAAW”, the “soluble on expression in E. coli” value is given as “soluble”. To “MGSDKIHHHHHHMSTDNYYIRRRLLSSLTAHLDQPEITVLVGPRQSGKTTILKRLESELRAGGRKTLWLNLDFEDDFRHVASEGALLQKIQLELGSGGGVVFIDEIQRRENAGLFLKGLYDQGLPWKFVVSGSGSIELKEKISESLVGRKRLFELSTVSFGEFADFRTGYRYTDRLRDYFRTEPSKTDQLFREYLMYGGYPRVVLADTHQEKMATINEIFRSYLEKDIVYLLRVEKSESFSNLVRVLATQSGKMVSYSELSATLGLSLATVKLYLWYLEKTYIIDKVTPWYTNIRKEITKAPVYYFRDIGLRNFAAGSFGALSDSEAGFAFQNVIHAMLKERFPLADSTIHYWRTKDKAEVDFVLRSGDTVTPLEVKYRDMKKLDVRRSFLGFLTRYHPEFGYIVNRNYSDEALICQTRVRCLPYWELMFEEAFP” belongs “not soluble”. As to “MGSDKIHHHHHHMKQIAVVSGKGGTGKTTFTASLGVLLENSLLADCDVDASNLYILFPGDPVEEHEYYRGKKAVIDQEKCDRCGICERVCRFDAIIPGEKYGVDQYACEGCNACVVSCPRNAITLVQSLAGRYFFAWSGGKPIVYARLSPGEENSGGLVAEVRKLALEKAKELKRDYVIIDGAPGIGCSATSSIVGVNYVVVVTEPTMSGLHDLKRIVETLKCLKREFGIVINKYDINSVVSREIEDYCLSEGLDLLGKIPFDETVVRASVECKPVVTYENSPAAESIKKIVEKIIEKIS”, the “soluble on expression in E. coli” value was “not soluble”.

“MQVLNTKSETKQENETMQPPYIQERLKSLNDIETQLCSMLQEASQVTFIFGELKRGNESVKPQFENHVKQFYERLDKSTTQLRKEIQLLDENVGTRLLPINVNKKALGQDTEKMEEQLDLLSAILDPSKSK”: the “soluble on expression in E. coli” value was “soluble”. To “MRTVIFDLDGTLADTSGDLLAAANHCFRDMGLGDVLVPGQDAGIALRGGRMMLTRGLERVGAYDAATVERYYPVLLEAYRGAIDHHSFLYPGAMDAVEELRRAGYGVGICTNKPEALADLLLQRLGVRDAFAALIGADTLPVRKPDPEPLRAAARAAGGDPAACVLVGDSDTDRNTARAAGVPSILVTFGPSGDDMAALEPEALLERFEDLPHVVTRLIG” belongs “not soluble”; to “MTMDTAQLKSQIQQYLVESGNYELISNELKARLLQEGWVDKVKDLTKSEMNINESTNFTQILSTVEPKALEMVSDSTRETVLKQIREFLEEIVDTQ”, “soluble”; to “MGSDKIHHHHHHMKVTTISIDLAKNVFQVLGMDCHAKQVFNKRLNRTQLTEFMLQQPNCDVVFEACYSSHYWGRKFLAMGHNVKLIPAQHVTPFVRGSKNDNNDTMAIYEASFRPNIRFVPVKTEEQQEILMLHRIRERLVKEKTACTNQIRGVLVDFGICFAQGYKAFEVAIWDIINDASQRPIIKLMANDFWGEYQSVNTRLDRINTLIKKLIERDPNGKILLSIPGVGPIIASAFVASIGRGQAFNTAKELGVWLGLTPKQFASGHRSVNGSITKRGNGYLRKQLIHGARAVVSHASKKQDDLNLWIMQLRSRKSICSTVVATAHRLARLIWILLQKQVPYVPQYAANQGVNHGTC”, “not soluble”. The result for “MSLQPTAGETTFERVRRTRKLRIGAVNGGAPYYYRDLASGQWKGFYIDICKALADEMECELDVTETTWGNSVLDLQAGKTDVFFGLNPTPKRALVVDFSVPVFANAFTFITRKGFERKTWAEMNDPAVRIAVDAGSSHDAVVTRLAPKAQITRLKGADDATAALQAGRVDAQCLVFILSLTVLKKNPALGQFTLPTPIFSTTSNAGFRREADKTWRDYVSTWIEFNKGMGFIRSAIIGNLESEGHHHHHH” reads “not soluble”; that for “MKLEIFSWWAGDEGPALEALIRLYKQKYPGVEVINATVTGGAGVNARAVLKTRMLGGDPPDTFQVHAGMELIGTWVVANRMEDLSALFRQEGWLQAFPKGLIDLISYKGGIWSVPVNIHRSNVMWYLPAKLKGWGVNPPRTWDKFLATCQTLKQKGLEAPLALGENWTQQHLWESVALAVLGPDDWNNLWNGKLKFTDPKAVRAWEVFGRVLDCANKDAAGLSWQQAVDRVVQGKAAFNIMGDWAAGYMTTTLKLKPGTDFAWAPSPGTQGVFMMLSDSFGLPKGAKNRQNAINWLRLVGSKEGQDTSNPLKGSIAARLDSDPSKYNAYGQSAMRDWRSNRIVGSLVHGAVAPESFMSQFGTVMEIFLQTRNPQAAANAAQAIADQVGLGRLGQHHHHHH”, “soluble”.
